The term stoichiometry N denotes the number of molecules, sites or subunits per partner or assembly.

We go through two compounds from PMC3431236, “Characterization and optimization of ArtinM lectin expression in Escherichia coli” (BMC Biotechnology, 2012).

For experiment [1], the target named is plant native ArtinM (Artocarpus integrifolia). The experiment in a line: SEC; analytical size exclusion chromatography on TSK-G2000sw, 50 mM KH2PO4, 300 mM NaCl, pH 7.4; calibrated with thyroglobulin, immunoglobulin G, ovalbumin and myoglobin. On the technique in general: SEC sorts molecules by how far they enter the pores of the column.
In experiment [2] the target is T1, rArtinM (recombinant ArtinM) (Artocarpus integer, UniProt Q7M1T4, Q3R).
T1 construct: coding region from cDNA clone pLL29 in pET29a(+) (NdeI/BamHI, stop codon, untagged), E. coli BL21-CodonPlus(DE3)-RP; initiator Met removed, not N-acetylated; unintentional Q3R; monomer (native is tetramer)
T1 sequence (Q7M1T4 entry or part of it Q3R): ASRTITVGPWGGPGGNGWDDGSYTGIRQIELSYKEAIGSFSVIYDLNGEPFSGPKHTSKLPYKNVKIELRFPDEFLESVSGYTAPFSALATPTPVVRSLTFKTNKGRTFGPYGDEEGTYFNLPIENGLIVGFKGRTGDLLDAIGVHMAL
The experiment in a line: affinity chromatography on D-mannose column, eluted with free D-mannose. It is filed as binding. The note with it: PBS with 0.5 M NaCl, 4 °C; elution with 0.1 M D-mannose; unintentional Q3R carried by the recombinant protein.

Turning to plant native ArtinM (natural protein), the stoichiometry N in experiment [1] is 4. Turning to `OC[C@H]1OC(O)[C@@H](O)[C@@H](O)[C@@H]1O` (stereo partly drawn) [D-mannose], the “affinity chromatography on D-mannose column, eluted with free D-mannose” value in experiment [2] is “purified from the E. coli lysate by affinity chromatography on a D-mannose column”.
